From article PMC3093367 come the findings set out here.

Data set [1] concerns the target Rift Valley fever virus nucleoprotein (N), recombinant wild type (Rift Valley fever virus (strain Smithburn)) (UniProt P21700). Kind of data set: cross-linking.
For data set [2] the target is unchanged. Kind of data set: crystal structure.
Data set [3] concerns the target T1, RVFV nucleoprotein N (SEC fraction N2) (Rift Valley fever virus (strain …, UniProt D3K5I7 1-245)).
T1 sequence: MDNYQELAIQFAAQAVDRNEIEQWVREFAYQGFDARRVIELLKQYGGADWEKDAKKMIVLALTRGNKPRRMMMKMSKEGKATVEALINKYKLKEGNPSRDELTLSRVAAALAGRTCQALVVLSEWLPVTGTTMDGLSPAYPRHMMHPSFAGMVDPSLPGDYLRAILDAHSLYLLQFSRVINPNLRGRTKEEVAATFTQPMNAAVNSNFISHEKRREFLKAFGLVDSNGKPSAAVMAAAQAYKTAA
Put plainly: SPR; RNA immobilized via biotin-NeutrAvidin; SPR (ProteOn XPR36, […]; temperature not stated. Conditions: protein: recombinant; tags: N-terminal thioredoxin-His6 tag removed by TEV; label: 3' biotin; single strand. On the technique in general: SPR reads the build-up and loss of mass on a sensor chip optically.

Where “and” joins values, the source holds several entries; their conditions need not be identical. Identical values can stand only once.

Sequence of Rift Valley fever virus nucleoprotein (N), recombinant wild type (P21700 whole entry): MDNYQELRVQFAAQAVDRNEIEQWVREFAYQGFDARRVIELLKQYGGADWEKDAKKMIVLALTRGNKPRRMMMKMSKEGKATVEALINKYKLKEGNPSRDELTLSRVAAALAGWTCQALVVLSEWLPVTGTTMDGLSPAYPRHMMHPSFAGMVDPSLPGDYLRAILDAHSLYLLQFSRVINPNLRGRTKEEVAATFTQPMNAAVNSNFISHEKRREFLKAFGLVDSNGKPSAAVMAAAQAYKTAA

For the molecule “Rift Valley fever virus nucleoprotein (N), recombinant wild type (from UniProt P21700 1-245) (natural protein)”, the stoichiometry N (as a rule, a count of units in the complex or per binding partner) in data set [1] is 2 and 3 and 4; in data set [2], 6.

Turning to GAGUUGUUAAUCUUUUUUUU (ssRNA) [RNA20-3'biotin], in data set [3], the equilibrium dissociation constant (Kd) (commonly the equilibrium constant for the complex coming apart) was found to be 3.8 µM.
